# According to US20260049138A1 (Chugai, published 2026):
# Where a chain is given by its changes, count along the chain named. Names and notes keep the numbering of the source.
# B1: GLS3000 K50Y one-arm antibody (antibody, human IgG1, kappa, L234A L235A, N297A, name in Kabat numbering)
# heavy: QVQLVESGGGVVQPGRSLRLSCAASGFTFSNAWMHWVRQAPGKGLEWVAQIKAKSNNYATYYAESVKGRFTISRDDSKNSLYLQMNSLKTEDTAVYYCRYVHYGAYYGVDAWGQGTTVTVSSASTKGPSVFPLAPSSKSTSGGTAALGCLVKDYFPEPVTVSWNSGALTSGVHTFPAVLQSSGLYSLSSVVTVPSSSLGTQTYICNVNHKPSNTKVDKKVEPKSCDKTHTCPPCPAPEAAGGPSVFLFPPKPKDTLMISRTPEVTCVVVDVSHEDPEVKFNWYVDGVEVHNAKTKPREEQYASTYRVVSVLTVLHQDWLNGKEYKCKVSNKALPAPIEKTISKAKGQPREPQVYTLPPSRCELTKNQVSLSCAVKGFYPSDIAVEWESNGQPENNYKTTPPVLDSDGSFFLVSKLTVDKSRWQQGNVFSCSVMHEALHNHYTQKSLSLSPDYKDDDDK
# chain: EPKSSDKTHTCPPCPAPELLGGPSVFLFPPKPKDTLMISRTPEVTCVVVDVSHEDPEVKFNWYVDGVEVHNAKTKPREEQYNSTYRVVSVLTVLHQDWLNGKEYKCKVSNKALPAPIEKTISKAKGQPREPQVCTLPPSRDELTKNQVSLWCLVKGFYPSDIAVEWESNGQPENNYKTTPPVLDSDGSFFLYSKLTVDKSRWQQGNVFSCSVMHEALHNRYTQKSLSLSP
# light: DIVMTQSPLSLPVTPGEPASISCRSSQSLVHSNRNTYLHWYQQKPGQAPRLLIYYVSNRFSGVPDRFSGSGSGTDFTLKISRVEAEDVGVYYCGQGTQVPYTFGQGTKLEIKRTVAAPSVFIFPPSDEQLKSGTASVVCLLNNFYPREAKVQWKVDNALQSGNSQESVTEQDSKDSTYSLSSTLTLSKADYEKHKVYACEVTHQGLSSPVTKSFNRGEC
# B2: GLS3000 K74T one-arm antibody (antibody, human IgG1, kappa, L234A L235A, N297A, name in Kabat numbering)
# heavy: B1 heavy
# chain: B1 chain
# light: B1 light with Y55K, K79T
# B3: GLS3000 K107E one-arm antibody (antibody, human IgG1, kappa, L234A L235A, N297A, name in Kabat numbering)
# heavy: B1 heavy
# chain: B1 chain
# light: B1 light with Y55K, K112E
# B4: GLS3000 L27bD one-arm antibody (antibody, human IgG1, kappa, L234A L235A, N297A, name in Kabat numbering)
# heavy: B1 heavy
# chain: B1 chain
# light: B1 light with L29D, Y55K
# B5: GLS3000 L27bE one-arm antibody (antibody, human IgG1, kappa, L234A L235A, N297A, name in Kabat numbering)
# heavy: B1 heavy
# chain: B1 chain
# light: B1 light with L29E, Y55K
# B6: GLS3000 L27bF one-arm antibody (antibody, human IgG1, kappa, L234A L235A, N297A, name in Kabat numbering)
# heavy: B1 heavy
# chain: B1 chain
# light: B1 light with L29F, Y55K
# B7: GLS3000 L27bI one-arm antibody (antibody, human IgG1, kappa, L234A L235A, N297A, name in Kabat numbering)
# heavy: B1 heavy
# chain: B1 chain
# light: B1 light with L29I, Y55K
# B8: GLS3000 L27bM one-arm antibody (antibody, human IgG1, kappa, L234A L235A, N297A, name in Kabat numbering)
# heavy: B1 heavy
# chain: B1 chain
# light: B1 light with L29M, Y55K
# B9: GLS3000 L27bP one-arm antibody (antibody, human IgG1, kappa, L234A L235A, N297A, name in Kabat numbering)
# heavy: B1 heavy
# chain: B1 chain
# light: B1 light with L29P, Y55K
# B10: GLS3000 L27bS one-arm antibody (antibody, human IgG1, kappa, L234A L235A, N297A, name in Kabat numbering)
# heavy: B1 heavy
# chain: B1 chain
# light: B1 light with L29S, Y55K
# B11: GLS3000 L27bV one-arm antibody (antibody, human IgG1, kappa, L234A L235A, N297A, name in Kabat numbering)
# heavy: B1 heavy
# chain: B1 chain
# light: B1 light with L29V, Y55K
# B12: GLS3000 L27bW one-arm antibody (antibody, human IgG1, kappa, L234A L235A, N297A, name in Kabat numbering)
# heavy: B1 heavy
# chain: B1 chain
# light: B1 light with L29W, Y55K
# B13: GLS3000 L27bY one-arm antibody (antibody, human IgG1, kappa, L234A L235A, N297A, name in Kabat numbering)
# heavy: B1 heavy
# chain: B1 chain
# light: B1 light with L29Y, Y55K
# B14: GLS3000 L33A one-arm antibody (antibody, human IgG1, kappa, L234A L235A, N297A, name in Kabat numbering)
# heavy: B1 heavy
# chain: B1 chain
# light: B1 light with L38A, Y55K
# B15: GLS3000 L33D one-arm antibody (antibody, human IgG1, kappa, L234A L235A, N297A, name in Kabat numbering)
# heavy: B1 heavy
# chain: B1 chain
# light: B1 light with L38D, Y55K
# B16: GLS3000 L33E one-arm antibody (antibody, human IgG1, kappa, L234A L235A, N297A, name in Kabat numbering)
# heavy: B1 heavy
# chain: B1 chain
# light: B1 light with L38E, Y55K
# B17: GLS3000 L33F one-arm antibody (antibody, human IgG1, kappa, L234A L235A, N297A, name in Kabat numbering)
# heavy: B1 heavy
# chain: B1 chain
# light: B1 light with L38F, Y55K
# B18: GLS3000 L33I one-arm antibody (antibody, human IgG1, kappa, L234A L235A, N297A, name in Kabat numbering)
# heavy: B1 heavy
# chain: B1 chain
# light: B1 light with L38I, Y55K
# B19: GLS3000 L33M one-arm antibody (antibody, human IgG1, kappa, L234A L235A, N297A, name in Kabat numbering)
# heavy: B1 heavy
# chain: B1 chain
# light: B1 light with L38M, Y55K
# B20: GLS3000 L33P one-arm antibody (antibody, human IgG1, kappa, L234A L235A, N297A, name in Kabat numbering)
# heavy: B1 heavy
# chain: B1 chain
# light: B1 light with L38P, Y55K
# B21: GLS3000 L33V one-arm antibody (antibody, human IgG1, kappa, L234A L235A, N297A, name in Kabat numbering)
# heavy: B1 heavy
# chain: B1 chain
# light: B1 light with L38V, Y55K
# B22: GLS3000 N28A one-arm antibody (antibody, human IgG1, kappa, L234A L235A, N297A, name in Kabat numbering)
# heavy: B1 heavy
# chain: B1 chain
# light: B1 light with N33A, Y55K
# B23: GLS3000 N28D one-arm antibody (antibody, human IgG1, kappa, L234A L235A, N297A, name in Kabat numbering)
# heavy: B1 heavy
# chain: B1 chain
# light: B1 light with N33D, Y55K
# Target: T1, CD3ε homodimer protein (human, UniProt P07766 23-126, limits assumed)
# T1 construct: also called CD3 (CD3ε)
# Experiment: SPR Biacore T200, CD3ε homodimer on chip;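 also: Light-chain single-residue variant antibodies injected over amine-coupled CD3ε homodimer on a CM4 chip at 25 °C, bound amount divided by that of the GLS3000-containing antibody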
# T1 sequence (P07766 23-126 limits assumed): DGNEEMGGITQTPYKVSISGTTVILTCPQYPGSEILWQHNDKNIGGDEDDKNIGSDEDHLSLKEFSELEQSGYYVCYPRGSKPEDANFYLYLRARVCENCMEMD
row,Binder,ratio of amount bound vs unaltered GLS3000
1,B1,0.24
2,B2,0.84
3,B3,0.94
4,B4,0.17
5,B5,0.17
6,B6,0.42
7,B7,1.19
8,B8,0.71
9,B9,0.91
10,B10,0.71
11,B11,1.12
12,B12,0.26
13,B13,0.25
14,B14,0.85
15,B15,0.17
16,B16,0.72
17,B17,0.78
18,B18,0.83
19,B19,0.93
20,B20,0.3
21,B21,1.05
22,B22,0.25
23,B23,0.19
